Laboratory results as given in paper PMC3948114.

B1: unnamed (parent)
chain 1: HMGGQDKPFLSAWPSAVVPRGGHVTLRCHYRHRFNNFMLYKEDRIHIPIFHGRIFQESFNMSPVTTAHAGNYTCRGSHPHSPTGWSAPSNPVVIMVTGNHRKPSLLAHPGPLVKSGERVILQCWSDIMFEHFFLHKEGISKDPSRLVGQIHDGVSKANFSIGPMMLALAGTYRCYGSVTHTPYQLSAPSDPLDIVVTGPYEKPSLSAQPGPKVQAGESVTLSCSSRSSYDMYHLSREGGAHERRLPAVRKVNRTFQADFPLGPATHGGTYRCFGSFRHSPYEWSDPSDPLLVSVTGNPSSSWPSPTEPSSKSGNPRHLHILIGTSVVIILFILLLFFLLHLWCSNKKNAAVMDQEPAGNRTANSEDSDEQDPEEVTYAQLDHCVFTQRKITRPSQRPKTPPTDTILYTELPNAKPRSKVVSCP
chain 2: not shown
chain 3: not shown
chain 4: TSTLQEQIDW

Variants of: B1
Assay: tetramer staining of transfected HEK293 cells
Conditions: with partner chain of the complex shown; 0.2 μg tetramer; read off a plot

Variant	response (% of *001 TW10)
chain 1 L166A	90
chain 1 L166V	46
chain 1 E282Q	130
chain 1 E282A	26
chain 1 A167G	10
